Measured values: US20260167718A1 (Merck Sharp & Dohme, published 2026)

T1: rhesus ILT3-His tagged recombinant protein (rhesus monkey (Macaca mulatta))
T1 construct: also called ILT3_MM; not shown: His tag
T1 chain: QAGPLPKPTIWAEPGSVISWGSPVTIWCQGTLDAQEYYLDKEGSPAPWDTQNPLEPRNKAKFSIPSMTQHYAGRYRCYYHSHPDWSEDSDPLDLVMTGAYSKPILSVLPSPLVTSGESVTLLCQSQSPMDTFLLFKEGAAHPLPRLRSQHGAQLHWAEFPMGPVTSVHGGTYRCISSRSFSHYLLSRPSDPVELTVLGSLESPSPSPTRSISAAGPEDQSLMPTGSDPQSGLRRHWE


Legend:
[1] = target: T2, human ILT3 expressed on cells (human, UniProt Q8NHJ6 22-448); test: cELISA, CHO human ILT3 cells
T2 construct: whole, on cells; also called huILT3; LILRB4

[2] = target: T3, Human ILT3 (LILRB4) extracellular domain with C-terminal His Tag (human, UniProt Q8NHJ6 22-259); test: SPR (Biacore), human ILT3-His
T3 construct: the claims count residues 1-238 as the extracellular domain; also called human ILT3-His; ILT3_H
Description: (§1) The binding kinetics and affinities of anti-human ILT3 clones for human or rhesus ILT3-His tagged recombinant protein were measured by surface plasmon resonance using a Biacore™ T200 system (GE Healthcare, Piscataway, NJ). HBS-EP+ buffer (BR-1006-69) was used as the running buffer. Anti-human Fc antibody (Human Fc Capture Kit, BR100839, GE Healthcare) was immobilized via amine coupling chemistry in all four flow cells on a Series S CM5 sensor chip (BR100530 or 29149603, GE Healthcare) following manufacturer instructions. Flow cell 1 was used as reference for background subtraction and was not used for capture. […] Following each injection cycle, all four flow cells were regenerated using 30 second injection of 3M MgCl₂ solution at a flow rate of 10 μL/minute. Reference subtracted sensorgrams were fit to a 1:1 Langmuir Binding Model in the Biacore™ T200 Evaluation Software (Version 2.0) to determine the association (ka) and dissociation (kd) rate constants and the equilibrium dissociation constant KD (=kd/ka).

[3] = target: T4, Rhesus monkey ILT3 expressed on CHO-K1 cells (rhesus monkey (Macaca mulatta)); test: cELISA, CHO rhesus ILT3 cells
T4 construct: whole, on cells; also called rhILT3; CHO-rhesus ILT3

[4] = target: T1, rhesus ILT3-His tagged recombinant …; test: SPR (Biacore), rhesus ILT3-His
Description: as §1

Binder	EC50 [1]	Kd [2]	EC50 [3]	Kd [4]	binding result [2]	binding result [4]
Humanized anti-ILT3 mAb (52B8 VH1 M64V W101Y/VL5 S35N) IgG4 S228P/Kappa (antibody, V domains shown, also called mAb 56) VH: EVQLVESGGGLVQPGGSLRLSCAASGFTFSNYGMSWVRQAPGKGLEWVATISGGGDYTNYPDSVRGRFTISRDNAKNSLYLQMNSLRAEDTAVYYCGRRLYFRSLYYAMDYWGQGTLVTVSS VL: DIQLTQSPSSLSASVGDRVTITCRASEKVDSFGNNFMHWYQQKPGKAPKLLIYLTSNLDSGVPSRFSGSGSGTDFTLTISSLQPEDFATYYCQQNNEDPYTFGQGTKLEIKR					no binding (tested: ILT3-His injected up to 20 nM)	no binding (tested: ILT3-His injected up to 20 nM)
Humanized anti-ILT3 mAb (52B8 VH1/VL3) IgG4 S228P/Kappa (antibody, V domains shown, also called mAb 3) VH: EVQLVESGGGLVQPGGSLRLSCAASGFTFSNYGMSWVRQAPGKGLEWVATISGGGDYTNYPDSMRGRFTISRDNAKNSLYLQMNSLRAEDTAVYYCGRRLWFRSLYYAMDYWGQGTLVTVSS VL: EIVLTQSPATLSLSPGERATLSCRASEKVDSFGNSFMHWYQQKPGQAPRLLIYLTSNLDSGVPARFSGSGSRTDFTLTISSLEPEDFAVYYCQQNNEDPYTFGQGTKLEIKR		1.1 nM		26 nM		
Humanized anti-ILT3 mAb (52B8 VH1 M64V/VL5 N34D) IgG4 S228P/Kappa (antibody, V domains shown, also called mAb 47) VH: EVQLVESGGGLVQPGGSLRLSCAASGFTFSNYGMSWVRQAPGKGLEWVATISGGGDYTNYPDSVRGRFTISRDNAKNSLYLQMNSLRAEDTAVYYCGRRLWFRSLYYAMDYWGQGTLVTVSS VL: DIQLTQSPSSLSASVGDRVTITCRASEKVDSFGDSFMHWYQQKPGKAPKLLIYLTSNLDSGVPSRFSGSGSGTDFTLTISSLQPEDFATYYCQQNNEDPYTFGQGTKLEIKR		3.8 nM		115 nM		
Humanized anti-ILT3 mAb (52B8 VH1 M64V/VL5 S35A) IgG4 S228P/Kappa (antibody, V domains shown, also called mAb 44) VH: EVQLVESGGGLVQPGGSLRLSCAASGFTFSNYGMSWVRQAPGKGLEWVATISGGGDYTNYPDSVRGRFTISRDNAKNSLYLQMNSLRAEDTAVYYCGRRLWFRSLYYAMDYWGQGTLVTVSS VL: DIQLTQSPSSLSASVGDRVTITCRASEKVDSFGNAFMHWYQQKPGKAPKLLIYLTSNLDSGVPSRFSGSGSGTDFTLTISSLQPEDFATYYCQQNNEDPYTFGQGTKLEIKR		2.6 nM		34 nM		
Humanized anti-ILT3 mAb (52B8 VH2 M64V/VL4) IgG4 S228P/Kappa (antibody, V domains shown, also called mAb 16) VH: EVQLVESGGGLVQPGGSLRLSCAASGFTFSNYGMSWVRQAPGKGLEWVATISGGGDYTNYPDSVRGRFTISRDNAKNSLYLQMNSLKAEDTAVYYCGRRLWFRSLYYAMDYWGQGTLVTVSS VL: EIVLTQSPATLSLSPGERATLSCRASEKVDSFGNSFMHWYQQKPGQAPRLLIYLTSNLDSGIPARFSGSGSGTDFTLTISSLEPEDFAVYYCQQNNEDPYTFGQGTKLEIKR		1.4 nM		29 nM		
Humanized anti-ILT3 mAb (52B8 VH1 M64V/VL5 S35N) IgG4 S228P/Kappa (antibody, V domains shown, also called mAb 45) VH: EVQLVESGGGLVQPGGSLRLSCAASGFTFSNYGMSWVRQAPGKGLEWVATISGGGDYTNYPDSVRGRFTISRDNAKNSLYLQMNSLRAEDTAVYYCGRRLWFRSLYYAMDYWGQGTLVTVSS VL: DIQLTQSPSSLSASVGDRVTITCRASEKVDSFGNNFMHWYQQKPGKAPKLLIYLTSNLDSGVPSRFSGSGSGTDFTLTISSLQPEDFATYYCQQNNEDPYTFGQGTKLEIKR		4.7 nM				no binding (tested: ILT3-His injected up to 20 nM)
Humanized anti-ILT3 mAb (52B8 VH1 M64V/VL4) IgG4 S228P/Kappa (antibody, V domains shown, also called mAb 12) VH: EVQLVESGGGLVQPGGSLRLSCAASGFTFSNYGMSWVRQAPGKGLEWVATISGGGDYTNYPDSVRGRFTISRDNAKNSLYLQMNSLRAEDTAVYYCGRRLWFRSLYYAMDYWGQGTLVTVSS VL: EIVLTQSPATLSLSPGERATLSCRASEKVDSFGNSFMHWYQQKPGQAPRLLIYLTSNLDSGIPARFSGSGSGTDFTLTISSLEPEDFAVYYCQQNNEDPYTFGQGTKLEIKR		1.5 nM		29 nM		
Humanized anti-ILT3 mAb (52B8 VH1/VL4) IgG4 S228P/Kappa (antibody, V domains shown, also called mAb 4) VH: EVQLVESGGGLVQPGGSLRLSCAASGFTFSNYGMSWVRQAPGKGLEWVATISGGGDYTNYPDSMRGRFTISRDNAKNSLYLQMNSLRAEDTAVYYCGRRLWFRSLYYAMDYWGQGTLVTVSS VL: EIVLTQSPATLSLSPGERATLSCRASEKVDSFGNSFMHWYQQKPGQAPRLLIYLTSNLDSGIPARFSGSGSGTDFTLTISSLEPEDFAVYYCQQNNEDPYTFGQGTKLEIKR		1.4 nM		29 nM		
Humanized anti-ILT3 mAb (52B8 VH1 M64L/VL4) IgG4 S228P/Kappa (antibody, V domains shown, also called mAb 20) VH: EVQLVESGGGLVQPGGSLRLSCAASGFTFSNYGMSWVRQAPGKGLEWVATISGGGDYTNYPDSLRGRFTISRDNAKNSLYLQMNSLRAEDTAVYYCGRRLWFRSLYYAMDYWGQGTLVTVSS VL: EIVLTQSPATLSLSPGERATLSCRASEKVDSFGNSFMHWYQQKPGQAPRLLIYLTSNLDSGIPARFSGSGSGTDFTLTISSLEPEDFAVYYCQQNNEDPYTFGQGTKLEIKR		1.3 nM		29 nM		

The remaining binders from weak to strong by Kd [2], led by results:

EC50 [1]	Kd [2]	EC50 [3]	Kd [4]	Binder	binding result [2]	binding result [4]
	1.3 nM		27 nM	Humanized anti-ILT3 mAb (52B8 VH2/VL4) IgG4 S228P/Kappa (antibody, V domains shown, also called mAb 8) VH: EVQLVESGGGLVQPGGSLRLSCAASGFTFSNYGMSWVRQAPGKGLEWVATISGGGDYTNYPDSMRGRFTISRDNAKNSLYLQMNSLKAEDTAVYYCGRRLWFRSLYYAMDYWGQGTLVTVSS VL: EIVLTQSPATLSLSPGERATLSCRASEKVDSFGNSFMHWYQQKPGQAPRLLIYLTSNLDSGIPARFSGSGSGTDFTLTISSLEPEDFAVYYCQQNNEDPYTFGQGTKLEIKR		
	1.2 nM		27 nM	Humanized anti-ILT3 mAb (52B8 VH2 M64L/VL4) IgG4 S228P/Kappa (antibody, V domains shown, also called mAb 24) VH: EVQLVESGGGLVQPGGSLRLSCAASGFTFSNYGMSWVRQAPGKGLEWVATISGGGDYTNYPDSLRGRFTISRDNAKNSLYLQMNSLKAEDTAVYYCGRRLWFRSLYYAMDYWGQGTLVTVSS VL: EIVLTQSPATLSLSPGERATLSCRASEKVDSFGNSFMHWYQQKPGQAPRLLIYLTSNLDSGIPARFSGSGSGTDFTLTISSLEPEDFAVYYCQQNNEDPYTFGQGTKLEIKR		
	1.1 nM		27 nM	Humanized anti-ILT3 mAb (52B8 VH1 M64V/VL3) IgG4 S228P/Kappa (antibody, V domains shown, also called mAb 11) VH: EVQLVESGGGLVQPGGSLRLSCAASGFTFSNYGMSWVRQAPGKGLEWVATISGGGDYTNYPDSVRGRFTISRDNAKNSLYLQMNSLRAEDTAVYYCGRRLWFRSLYYAMDYWGQGTLVTVSS VL: EIVLTQSPATLSLSPGERATLSCRASEKVDSFGNSFMHWYQQKPGQAPRLLIYLTSNLDSGVPARFSGSGSRTDFTLTISSLEPEDFAVYYCQQNNEDPYTFGQGTKLEIKR		
	1 nM		26 nM	Humanized anti-ILT3 mAb (52B8 VH2 M64V/VL3) IgG4 S228P/Kappa (antibody, V domains shown, also called mAb 15) VH: EVQLVESGGGLVQPGGSLRLSCAASGFTFSNYGMSWVRQAPGKGLEWVATISGGGDYTNYPDSVRGRFTISRDNAKNSLYLQMNSLKAEDTAVYYCGRRLWFRSLYYAMDYWGQGTLVTVSS VL: EIVLTQSPATLSLSPGERATLSCRASEKVDSFGNSFMHWYQQKPGQAPRLLIYLTSNLDSGVPARFSGSGSRTDFTLTISSLEPEDFAVYYCQQNNEDPYTFGQGTKLEIKR		
	0.99 nM		26 nM	Humanized anti-ILT3 mAb (52B8 VH1 M64L/VL3) IgG4 S228P/Kappa (antibody, V domains shown, also called mAb 19) VH: EVQLVESGGGLVQPGGSLRLSCAASGFTFSNYGMSWVRQAPGKGLEWVATISGGGDYTNYPDSLRGRFTISRDNAKNSLYLQMNSLRAEDTAVYYCGRRLWFRSLYYAMDYWGQGTLVTVSS VL: EIVLTQSPATLSLSPGERATLSCRASEKVDSFGNSFMHWYQQKPGQAPRLLIYLTSNLDSGVPARFSGSGSRTDFTLTISSLEPEDFAVYYCQQNNEDPYTFGQGTKLEIKR		
	0.96 nM		24 nM	Humanized anti-ILT3 mAb (52B8 VH2 M64L/VL3) IgG4 S228P/Kappa (antibody, V domains shown, also called mAb 23) VH: EVQLVESGGGLVQPGGSLRLSCAASGFTFSNYGMSWVRQAPGKGLEWVATISGGGDYTNYPDSLRGRFTISRDNAKNSLYLQMNSLKAEDTAVYYCGRRLWFRSLYYAMDYWGQGTLVTVSS VL: EIVLTQSPATLSLSPGERATLSCRASEKVDSFGNSFMHWYQQKPGQAPRLLIYLTSNLDSGVPARFSGSGSRTDFTLTISSLEPEDFAVYYCQQNNEDPYTFGQGTKLEIKR		
	0.96 nM		26 nM	Humanized anti-ILT3 mAb (52B8 VH2/VL3) IgG4 S228P/Kappa (antibody, V domains shown, also called mAb 7) VH: EVQLVESGGGLVQPGGSLRLSCAASGFTFSNYGMSWVRQAPGKGLEWVATISGGGDYTNYPDSMRGRFTISRDNAKNSLYLQMNSLKAEDTAVYYCGRRLWFRSLYYAMDYWGQGTLVTVSS VL: EIVLTQSPATLSLSPGERATLSCRASEKVDSFGNSFMHWYQQKPGQAPRLLIYLTSNLDSGVPARFSGSGSRTDFTLTISSLEPEDFAVYYCQQNNEDPYTFGQGTKLEIKR		
0.086 µg/mL	0.41 nM	0.137 µg/mL	9.3 nM	Chimeric anti-ILT3 52B8 mouse VH M64L/human IgG4 (S228P):mouse VL/human Kappa (antibody, V domains shown, also called mAb 75) VH: EVQLVESGGDLVKPGGSLKLSCAASGFTFSNYGMSWVRQTPDRRLEWVATISGGGDYTNYPDSLRGRFTISRDNAKNTLYLQMSSLKSEDTAMYYCGRRLWFRSLYYAMDYWGQGTSVTVSS VL: NIVLTQSPASLAVSLGQRATISCRASEKVDSFGNSFMHWYQQKPGQPPKLLIYLTSNLDSGVPARFSGSGSRTDFALTIDPVEADDAATYYCQQNNEDPYTFGGGTKLEIKR		
